B1: humanized 1D4 (h1D4), Fc version not stated (antibody, V domains shown)
VH: EIQLVQSGSELKKPGASVKVSCKASGYTFTEYPIHWVRQAPGQGFEWMGMIYTDTGEPTHAEEFKGRFVFSLDTSVSTAYLQISSLKAEDTAVYFCVRWYDGSSYIMDYWGQGTTVTVSS
VL: DIQMTQSPSSLSASVGDRVTITCKASQDINSYLSWFQQKPGKSPKTLIYRANRLVDGVPSRFSGSGSGQDYTFTISSLQPEDIATYYCLQYDEFPLTFGGGTKVEIK
notes: Recombinant humanized antibody, hIgG1 backbone with kappa light chain; also called hiD4; hu1D4
B2: humanized 6E1 (h6E1), Fc version not stated (antibody, V domains shown)
VH: EVQLVQSGAEVKKPGASVKVSCKASGYTFTNYWMHWMRQAPGQGLEWLGRIHPSDSDTNYNQKFKGRATLTVDKSISTAYMELSRLRSDDTAVYYCAIEGTGKGYFDVWGRGTLVTVSS
VL: DIQMTQSPSSLSASVGDRVTITCKASQDIYSYLSWFQQKPGKSPKTLIYRANRLVDGVPSRFSGSGSGQDFTLTISSLQPEDFATYYCLHYDEFPLTFGGGTKVEIK
notes: Recombinant humanized antibody, hIgG1 backbone with kappa light chain; also called hu6E1; PUR3993
B3: humanized 8E11 (h8E11), Fc version not stated (antibody, V domains shown)
VH: EVQLVESGGGLVQPGGSLRLSCAASGFTFRTYGMHWVRQAPGKGLEWVAYISSGSGTIDYADTVKGRFTISRDNAKNSLYLQMNSLRAEDTAVYYCTRQTGAMDYWGQGTLVTVSS
VL: EIVLTQSPATLSLSPGERATLSCSASSSVSYMNWYQQKPGQSPRLWIYGISNLASGVPARFSGSGSGTDFTLTISSLEPEDFAVYYCQQRSSHPLTFGGGTKVEIK
notes: Recombinant humanized antibody, hIgG1 backbone with kappa light chain; also called PUR3926
B4: Humanized 1D4 (h1D4) (E-) (antibody, human IgG1, kappa, N297G, V domains shown)
VH: EIQLVQSGSELKKPGASVKVSCKASGYTFTEYPIHWVRQAPGQGFEWMGMIYTDTGEPTHAEEFKGRFVFSLDTSVSTAYLQISSLKAEDTAVYFCVRWYDGSSYIMDYWGQGTTVTVSS
VL: DIQMTQSPSSLSASVGDRVTITCKASQDINSYLSWFQQKPGKSPKTLIYRANRLVDGVPSRFSGSGSGQDYTFTISSLQPEDIATYYCLQYDEFPLTFGGGTKVEIKR
notes: hIgG1 with N297G (effector negative)
B5: Humanized 6E1 (h6E1) (E-) (antibody, human IgG1, kappa, N297G, V domains shown)
VH: EVQLVQSGAEVKKPGASVKVSCKASGYTFTNYWMHWMRQAPGQGLEWLGRIHPSDSDTNYNQKFKGRATLTVDKSISTAYMELSRLRSDDTAVYYCAIEGTGKGYFDVWGRGTLVTVSS
VL: DIQMTQSPSSLSASVGDRVTITCKASQDIYSYLSWFQQKPGKSPKTLIYRANRLVDGVPSRFSGSGSGQDFTLTISSLQPEDFATYYCLHYDEFPLTFGGGTKVEIKR
notes: as for B4
B6: human soluble MICB (hMICB) (ligand)
chain: AEPHSLRYNLMVLSQDESVQSGFLAEGHLDGQPFLRYDRQKRRAKPQGQWAEDVLGAKTWDTETEDLTENGQDLRRTLTHIKDQKGGLHSLQEIRVCEIHEDSSTRGSRHFYYDGELFLSQNLETQESTVPQSSRAQTLAMNVTNFWKEDAMKTKTHYRAMQADCLQKLQRYLKSGVAIRRTVPPMVNVTCSEVSEGNITVTCRASSFYPRNITLTWRQDGVSLSHNTQQWGDVLPDGNGTYQTWVATRIRQGEEQRFTCYMEHSGNHGTHPVPSGKVLVLQSQRTD
notes: the printed Uniprot number (29983) looks wrong; also called sMICB

Assays:
[1] = molecular target: T1, human ULBP6 displayed on M13 phage (ULBP6-HA-pIII) (human, UniProt Q5VY80 26-218); assay: phage ELISA: plate coated with the antibody, ULBP6 phage titrated in 3-fold steps from 1.0 O.D./mL, HRP anti-M13 detection, O.D. 450
T1 construct: also called ULBP6 phage; not shown: M13 minor coat protein pIII
T1 sequence: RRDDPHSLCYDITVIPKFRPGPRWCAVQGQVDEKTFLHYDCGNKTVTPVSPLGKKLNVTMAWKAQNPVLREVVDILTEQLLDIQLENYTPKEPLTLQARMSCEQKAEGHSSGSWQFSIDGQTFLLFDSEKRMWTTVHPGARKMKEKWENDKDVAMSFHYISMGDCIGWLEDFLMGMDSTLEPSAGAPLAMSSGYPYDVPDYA

[2] = molecular target: T2, cell surface ULBP6_02 on PANC02.13 cells (human, UniProt Q5VY80 26-218); assay: flow cytometry on PANC02.13 cells, anti-hFc-APC detection, average of 2 replicates
T2 construct: whole, on cells; also called cell surface ULBP6 (PANC02.13)
T2 chain: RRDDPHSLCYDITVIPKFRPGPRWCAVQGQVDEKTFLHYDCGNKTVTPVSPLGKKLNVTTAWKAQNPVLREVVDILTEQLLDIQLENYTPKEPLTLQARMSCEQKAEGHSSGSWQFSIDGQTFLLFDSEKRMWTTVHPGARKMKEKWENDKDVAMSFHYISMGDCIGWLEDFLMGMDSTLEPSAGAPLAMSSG

[3] = molecular target: T3, cell surface ULBP6_01 on COV644 cells (human, UniProt Q5VY80 27-218); assay: flow cytometry; blocking of hNKG2D-mFc binding to COV644 cells, average of 2 replicates
T3 construct: whole, on cells; also called cell surface ULBP6 (COV644)
T3 chain: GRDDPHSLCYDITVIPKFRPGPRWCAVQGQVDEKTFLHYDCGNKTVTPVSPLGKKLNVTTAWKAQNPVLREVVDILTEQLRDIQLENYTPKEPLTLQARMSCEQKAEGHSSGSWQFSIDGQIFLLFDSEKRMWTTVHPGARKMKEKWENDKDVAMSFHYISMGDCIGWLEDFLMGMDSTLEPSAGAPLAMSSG

[4] = molecular target: T3, cell surface ULBP6_01 on COV644 cells; assay: flow cytometry on COV644 cells, anti-hFc-APC detection, average of 2 replicates
[5] = molecular target: T4, cynomolgus soluble ULBP2/6 (cULBP2/6) (cynomolgus, UniProt Q5VY80 28-217 (human entry), limits assumed); assay: SPR (BIACORE 8K, 37 C); antibody captured on Protein A, soluble ULBP injected;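 note: ligand injected as threefold dilution series in HBS-P (highest 10 or 50 nM), reference-cell and buffer-subtracted sensorgrams fitted with a 1:1 Langmuir model for on and off rates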
T4 construct: also called cyno ULBP6; Cyno-cULBP2/6
T4 chain: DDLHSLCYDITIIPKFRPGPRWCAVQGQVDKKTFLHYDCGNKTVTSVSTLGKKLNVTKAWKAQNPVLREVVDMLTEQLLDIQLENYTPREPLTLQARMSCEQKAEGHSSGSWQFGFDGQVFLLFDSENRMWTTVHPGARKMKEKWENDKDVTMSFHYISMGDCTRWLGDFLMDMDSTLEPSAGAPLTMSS

[6] = molecular target: T5, human soluble ULBP2 (hULBP2) (human, UniProt Q9BZM5 26-216); assay: as above
T5 construct: also called sULBP2
T5 sequence: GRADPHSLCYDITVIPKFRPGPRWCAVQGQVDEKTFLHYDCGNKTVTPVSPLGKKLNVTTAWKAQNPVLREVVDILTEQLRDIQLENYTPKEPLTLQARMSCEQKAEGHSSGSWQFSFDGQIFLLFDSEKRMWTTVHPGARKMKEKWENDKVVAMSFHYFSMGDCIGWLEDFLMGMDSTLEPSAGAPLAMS

[7] = molecular target: T6, cynomolgus soluble ULBP5 (cULBP5) (cynomolgus); assay: as above
T6 construct: also called Cyno-cULBP5
T6 chain: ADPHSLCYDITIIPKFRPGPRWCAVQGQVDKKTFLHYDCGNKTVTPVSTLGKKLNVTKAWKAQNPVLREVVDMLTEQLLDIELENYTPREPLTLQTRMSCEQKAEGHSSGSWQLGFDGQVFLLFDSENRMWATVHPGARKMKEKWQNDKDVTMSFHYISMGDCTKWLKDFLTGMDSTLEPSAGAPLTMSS

[8] = molecular target: T7, human soluble ULBP6 haplotype 02 (hULBP6_02) (human, UniProt Q5VY80 26-218); assay: as above
T7 construct: also called sULBP6_02
T7 chain: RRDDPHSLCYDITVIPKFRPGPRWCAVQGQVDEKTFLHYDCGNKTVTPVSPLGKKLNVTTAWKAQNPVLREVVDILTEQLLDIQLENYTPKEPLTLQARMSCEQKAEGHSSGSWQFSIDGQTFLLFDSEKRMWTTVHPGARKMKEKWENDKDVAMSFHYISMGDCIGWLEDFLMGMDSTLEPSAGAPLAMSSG

[9] = molecular target: T8, human soluble ULBP6 haplotype 01 (hULBP6_01) (human, UniProt Q5VY80 27-218, limits assumed); assay: as above
T8 construct: also called sULBP6_01
T8 chain: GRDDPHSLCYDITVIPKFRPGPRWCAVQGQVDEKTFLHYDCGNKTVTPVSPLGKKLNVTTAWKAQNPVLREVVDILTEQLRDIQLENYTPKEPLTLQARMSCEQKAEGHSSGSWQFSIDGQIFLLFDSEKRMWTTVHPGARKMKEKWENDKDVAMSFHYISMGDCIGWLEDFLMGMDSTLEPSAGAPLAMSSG

[10] = molecular target: T9, human soluble ULBP5 (hULBP5) (human, UniProt Q6H3X3 26-218); assay: SPR (BIACORE);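 note: soluble human and cynomolgus NKG2D ligands injected as analytes in 3-fold dilution series spanning 0.01 to 50 nM at 37 °C, reference-subtracted sensorgrams fitted to a 1:1 Langmuir model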
T9 construct: also called sULBP5
T9 sequence: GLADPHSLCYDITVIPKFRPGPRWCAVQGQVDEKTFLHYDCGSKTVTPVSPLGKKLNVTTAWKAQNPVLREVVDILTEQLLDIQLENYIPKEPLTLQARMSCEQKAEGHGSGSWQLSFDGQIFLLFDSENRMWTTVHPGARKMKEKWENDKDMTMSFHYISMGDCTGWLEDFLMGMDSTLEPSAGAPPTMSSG

[11] = molecular target: T4, cynomolgus soluble ULBP2/6 (cULBP2/6); assay: SPR (BIACORE);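 note: soluble human and cynomolgus NKG2D ligands injected as analytes in 3-fold dilution series spanning 0.01 to 50 nM at 37 °C, reference-subtracted sensorgrams fitted to a 1:1 Langmuir model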
[12] = molecular target: T5, human soluble ULBP2 (hULBP2); assay: SPR (BIACORE);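 note: soluble human and cynomolgus NKG2D ligands injected as analytes in 3-fold dilution series spanning 0.01 to 50 nM at 37 °C, reference-subtracted sensorgrams fitted to a 1:1 Langmuir model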
[13] = molecular target: T6, cynomolgus soluble ULBP5 (cULBP5); assay: SPR (BIACORE);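 note: soluble human and cynomolgus NKG2D ligands injected as analytes in 3-fold dilution series spanning 0.01 to 50 nM at 37 °C, reference-subtracted sensorgrams fitted to a 1:1 Langmuir model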
[14] = molecular target: T7, human soluble ULBP6 haplotype 02 …; assay: SPR (BIACORE)
[15] = molecular target: T8, human soluble ULBP6 haplotype 01 …; assay: SPR (BIACORE)
[16] = molecular target: T7, human soluble ULBP6 haplotype 02 …; assay: blocking ELISA; hNKG2D coated, antibody titrated with biotinylated hULBP6_02
[17] = molecular target: T8, human soluble ULBP6 haplotype 01 …; assay: blocking ELISA; hNKG2D coated, antibody titrated with biotinylated hULBP6_01
[18] = molecular target: hNKG2D-Fc (human NKG2D 78-216 with C-terminal long huFc-Flag tag) (human); assay: SPR (BIACORE 8K, 37 C); hNKG2D-Fc captured on Protein A, soluble ligand injected
hNKG2D-Fc (human NKG2D 78-216 with C-terminal long huFc-Flag tag) (human), sequence (chain, as listed by the source limits assumed): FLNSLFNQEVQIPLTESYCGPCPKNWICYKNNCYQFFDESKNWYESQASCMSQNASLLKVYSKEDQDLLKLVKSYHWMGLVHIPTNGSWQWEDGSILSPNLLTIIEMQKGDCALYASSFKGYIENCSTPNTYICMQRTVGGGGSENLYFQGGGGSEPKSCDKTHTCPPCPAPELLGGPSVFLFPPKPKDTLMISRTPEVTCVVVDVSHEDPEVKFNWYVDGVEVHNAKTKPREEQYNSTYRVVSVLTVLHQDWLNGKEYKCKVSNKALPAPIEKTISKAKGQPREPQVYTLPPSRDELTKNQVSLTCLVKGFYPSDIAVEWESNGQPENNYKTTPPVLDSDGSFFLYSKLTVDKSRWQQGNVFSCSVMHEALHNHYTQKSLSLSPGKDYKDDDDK

Row | Binder | EC50 (read off the curve) [1] | EC50 [2] [nM] | IC50 [3] [nM] | EC50 [4] [nM] | Kd [5] [nM] | koff [5] [s⁻¹] | kon [5] [M⁻¹ s⁻¹] | Kd [6] [nM] | koff [6] [s⁻¹] | kon [6] [M⁻¹ s⁻¹] | Kd [7] [nM] | koff [7] [s⁻¹] | kon [7] [M⁻¹ s⁻¹] | Kd [8] [nM] | koff [8] [s⁻¹] | kon [8] [M⁻¹ s⁻¹] | Kd [9] [nM] | koff [9] [s⁻¹] | kon [9] [M⁻¹ s⁻¹] | Kd [10] [nM] | other results
1 | B1 | ~0.006 O.D. (phage) | 0.72 | 0.22 | 1.4 | 0.151 | 0.00133 | 8.84e+06 | 0.642 | 0.00148 | 2.31e+06 | 0.735 | 0.00105 | 1.43e+06 | 1.31 | 0.00215 | 1.64e+06 | 0.422 | 0.00114 | 2.69e+06 | – | –
2 | B2 | ~0.006 O.D. (phage) | 0.44 | 0.2 | 0.36 | 0.415 | 0.0115 | 2.77e+07 | 10.7 | 0.0386 | 3.62e+06 | 1.51 | 0.00922 | 6.1e+06 | 0.939 | 0.00664 | 7.07e+06 | 5.24 | 0.0246 | 4.7e+06 | – | –
3 | B3 | ~0.006 O.D. (phage) | 1.28 | 0.11 | 1.29 | 11.4 | 0.0045 | 396000 | 0.662 | 0.000542 | 819000 | 23.9 | 0.00333 | 139000 | 0.383 | 0.000459 | 1.2e+06 | 0.331 | 0.000492 | 1.48e+06 | – | –
4 | B4 | – | – | – | – | – | – | – | – | – | – | – | – | – | – | – | – | – | – | – | 8.88 | Kd [11]: 0.99 nM; Kd [12]: 0.47 nM; Kd [13]: 0.63 nM; Kd [14]: 1.06 nM; Kd [15]: 0.41 nM; IC50 [16]: 0.265 nM; IC50 [17]: 7.7 nM
5 | B5 | – | – | – | – | – | – | – | – | – | – | – | – | – | – | – | – | – | – | – | 8.7 | Kd [11]: 1.76 nM; Kd [12]: 8.91 nM; Kd [13]: 1.03 nM; Kd [14]: 0.68 nM; Kd [15]: 4.38 nM; IC50 [16]: 0.103 nM; IC50 [17]: 10.2 nM
6 | B6 | – | – | – | – | – | – | – | – | – | – | – | – | – | – | – | – | – | – | – | – | Kd [18]: 118 nM
